Test results as given in publication PMC5524369.
Blank lines part the entries; values can stand above or below the substance they belong to.

What was measured:
[1] = biological target: Tamm-Horsfall protein (human) (UniProt P07911); experiment: ELISA; wells coated with 25 μg/ml THP; C3b 1 to 250 μg/ml in 20 mM Tris/20 mM NaCl/0.05% Tween 20 (pH 7.5) without BSA, overnight, 4°C; detected with goat anti-human C3b; fitted to B = (F × Cap)/(KD + F)
[2] = biological target: complement factor H (Homo sapiens) (UniProt P08603); experiment: SPR; conditions: cited from earlier work
[3] = biological target: C1q (Homo sapiens) (UniProt P02745); conditions: cited from earlier work
[4] = biological target: Tamm-Horsfall protein (human) (UniProt P07911); experiment: ELISA; wells coated with 25 μg/ml THP; CFH 10 to 250 μg/ml in 1% BSA/20 mM Tris/20 mM NaCl/0.05% Tween 20 (pH 7.5), overnight, 4°C; detected with goat anti-human CFH; fitted to B = (F × Cap)/(KD + F)
[5] = biological target: Tamm-Horsfall protein (human) (UniProt P07911); experiment: as above; remark: listed apart in the source

Sequence of complement factor H (P08603 19-1231): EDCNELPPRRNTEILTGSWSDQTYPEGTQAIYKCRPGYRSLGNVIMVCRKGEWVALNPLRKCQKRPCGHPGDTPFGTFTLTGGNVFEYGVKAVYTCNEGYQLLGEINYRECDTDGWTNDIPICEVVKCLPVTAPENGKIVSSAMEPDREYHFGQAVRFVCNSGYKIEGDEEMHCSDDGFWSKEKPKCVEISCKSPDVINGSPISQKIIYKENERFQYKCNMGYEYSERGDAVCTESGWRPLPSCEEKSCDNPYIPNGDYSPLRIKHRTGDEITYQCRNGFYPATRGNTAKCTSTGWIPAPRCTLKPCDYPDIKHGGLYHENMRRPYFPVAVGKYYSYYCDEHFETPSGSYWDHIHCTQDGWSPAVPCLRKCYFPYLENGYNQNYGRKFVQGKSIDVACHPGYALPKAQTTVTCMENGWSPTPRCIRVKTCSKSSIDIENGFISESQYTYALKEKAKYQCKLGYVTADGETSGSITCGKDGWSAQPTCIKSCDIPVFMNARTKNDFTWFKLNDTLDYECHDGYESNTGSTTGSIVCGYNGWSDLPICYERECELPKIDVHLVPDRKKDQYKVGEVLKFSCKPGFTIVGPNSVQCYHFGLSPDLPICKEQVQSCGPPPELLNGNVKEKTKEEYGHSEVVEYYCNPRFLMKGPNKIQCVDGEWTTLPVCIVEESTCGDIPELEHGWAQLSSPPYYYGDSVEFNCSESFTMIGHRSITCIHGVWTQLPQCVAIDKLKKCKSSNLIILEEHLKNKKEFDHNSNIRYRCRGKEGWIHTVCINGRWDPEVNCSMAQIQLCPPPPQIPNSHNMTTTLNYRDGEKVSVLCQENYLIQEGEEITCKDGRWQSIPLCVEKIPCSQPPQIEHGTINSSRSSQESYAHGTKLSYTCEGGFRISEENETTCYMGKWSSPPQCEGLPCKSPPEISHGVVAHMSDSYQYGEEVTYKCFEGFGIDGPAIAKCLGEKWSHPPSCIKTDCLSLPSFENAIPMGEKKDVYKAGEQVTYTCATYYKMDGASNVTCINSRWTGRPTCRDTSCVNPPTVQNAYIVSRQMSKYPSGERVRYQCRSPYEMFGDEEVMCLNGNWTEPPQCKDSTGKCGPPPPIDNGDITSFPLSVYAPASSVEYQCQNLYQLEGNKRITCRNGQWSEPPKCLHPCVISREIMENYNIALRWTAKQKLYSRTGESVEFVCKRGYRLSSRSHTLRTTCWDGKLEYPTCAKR
Sequence of C1q (Homo sapiens) (P02745 23-245, chain 1 of 3): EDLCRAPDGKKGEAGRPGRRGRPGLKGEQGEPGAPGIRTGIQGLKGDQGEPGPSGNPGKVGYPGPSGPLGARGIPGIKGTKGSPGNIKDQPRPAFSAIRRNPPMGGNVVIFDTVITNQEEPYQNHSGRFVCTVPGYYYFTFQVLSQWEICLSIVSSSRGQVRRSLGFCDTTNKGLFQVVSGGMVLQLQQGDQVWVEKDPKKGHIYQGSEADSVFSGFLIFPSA
Sequence of C1q (Homo sapiens) (P02746 28-253, chain 2 of 3, further chain): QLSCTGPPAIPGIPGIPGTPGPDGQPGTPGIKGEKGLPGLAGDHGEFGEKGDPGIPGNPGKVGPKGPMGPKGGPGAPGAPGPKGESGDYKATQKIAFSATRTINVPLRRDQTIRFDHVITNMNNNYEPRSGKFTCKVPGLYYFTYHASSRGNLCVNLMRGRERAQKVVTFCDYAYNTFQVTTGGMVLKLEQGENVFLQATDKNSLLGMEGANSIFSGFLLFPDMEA
Sequence of C1q (Homo sapiens) (P02747 29-245, chain 3 of 3, further chain): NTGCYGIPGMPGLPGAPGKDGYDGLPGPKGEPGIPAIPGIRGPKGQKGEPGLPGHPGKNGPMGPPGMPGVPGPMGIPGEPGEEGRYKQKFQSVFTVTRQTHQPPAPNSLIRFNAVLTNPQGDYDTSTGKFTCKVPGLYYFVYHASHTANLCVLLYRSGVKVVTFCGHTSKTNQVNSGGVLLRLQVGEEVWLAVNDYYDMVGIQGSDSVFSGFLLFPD
Sequence of complement factor H (Homo sapiens) (P08603 19-1231): as the sequence (P08603 19-1231) above

- Kd [1]: 50 nM
Substance: complement 3b (from UniProt P01024 749-1663; P01024 749-1663) (natural protein)

Substance: THP (uromodulin) (from UniProt P07911)
- Kd [2]: 4000 nM
- Kd [3]: 1 nM

- Kd [4]: 1200 nM
- Kd [5]: 1000 nM
Substance: complement factor H (from UniProt P08603 19-1231) (natural protein)
